Legend:
[1] = biological target: T1, human insulin-like growth factor-II (human, UniProt P01344 25-91); experiment: SPR (Biacore 2000), hIGF-II amine-coupled on CM-5, antibody as analyte, 25 C
T1 construct: also called hIGF-II; IGF-II
Protocol: (§1) For diluting samples and as reaction buffers in measurement, HBS-EP (10 mM HEPES, 150 mM NaCl, 3 mM EDTA, 0.005% Tween 20 pH 7.4) (manufactured by Biacore) was used.
(§2) Using an amine coupling kit (manufactured by Biacore), recombinant hIGF-I (manufactured by Fujisawa Pharmaceutical Co., Ltd.) and hIGF-II (manufactured by R & D) were immobilized at 18.5 pg/mm² or 26.7 pg/mm², respectively, on sensor tip CM-5 (manufactured by Biacore). After various antibodies which were diluted 5 steps in 2-fold serial dilutions as analytes added at a flow of 5 μl/minute for 4 minutes to observe a binding reaction, the dissociation reaction was subsequently observed over 5 minutes. After the dissociation reaction, 5 μl of 30 mM hydrochloric acid was added once, to regenerate the sensor chip surface. The reaction was done at 25° C. Based on the reaction curves at various concentrations, the binding constant Kass and dissociation constant Kdiss were calculated, to calculate the binding constants KA (M⁻¹) of these various antibodies.

[2] = biological target: T2, human insulin-like growth factor-I (human, UniProt P05019 49-118); experiment: SPR (Biacore 2000), hIGF-I amine-coupled on CM-5, antibody as analyte, 25 C
T2 construct: mature; In the ELISAs it was coated as a conjugate with methylated BSA; in Biacore it was amine-coupled to a CM-5 chip; also called hIGF-I; IGF-I
Protocol: as §1, §2

[3] = biological target: T1, human insulin-like growth factor-II; experiment: SPR (Biacore 2000)
[4] = biological target: T2, human insulin-like growth factor-I; experiment: SPR (Biacore 2000)
[5] = biological target: T2, human insulin-like growth factor-I; experiment: binding ELISA on coated mBSA-hIGF-I
Protocol: A conjugate of hIGF-I (manufactured by Fujisawa Co., Ltd.) with methylated BSA (manufactured by SIGMA) was prepared and used as an antigen to be immobilized on an ELISA plate. That is, methylated BSA dissolved in distilled water was mixed with hIGF to a ratio of methylated BSA:hIGF-I=1:8 (weight ratio) at 4° C. The resulting mixture was agitated with a vortex mixer for 10 seconds, to obtain a conjugate of hIGF-I with methylated BSA (hereinafter referred to as mBSA-hIGF-I).
The above mBSA-hIGF-I was dispensed at 50 μl/well on a 96-well ELISA plate (manufactured by Greiner) to give a hIGF-I concentration of 20 ng/ml and then left overnight at 4° C. for immobilization. After washing with PBS, PBS containing 1% BSA (hereinafter referred to as BSA-PBS) was dispensed in 100 μl/well to react at room temperature for 1 hour to carry out blocking of the remaining active groups. Discarding BSA-PBS, the culture supernatant of each of the various transformants or each of various purified hIGF CDR-grafted antibodies was dispensed at 50 μl/well to react at room temperature for 2 hours. After the reaction, each well was washed with PBS containing 0.05% Tween 20 (hereinafter referred to as Tween-PBS). Then, HRP-labeled anti-human IgG antibody (manufactured by American Qualex) in 2000-fold dilution was dispensed at 50 μl/well as a secondary antibody to react at room temperature for 1 hour.

T2 sequence (P05019 49-118): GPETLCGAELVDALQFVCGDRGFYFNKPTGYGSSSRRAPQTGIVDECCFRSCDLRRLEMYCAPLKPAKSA
T1 sequence (P01344 25-91 limits assumed): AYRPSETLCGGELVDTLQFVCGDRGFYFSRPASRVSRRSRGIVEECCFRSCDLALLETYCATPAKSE

Row | Ka [1] | Ka [2] | KA relative to CamHV0/LV0 (fold) [3] | KA relative to CamHV0/LV0 (fold) [4] | binding activity relative to KM3002 (fold) [5] | KA relative to KM3002 (fold) [3] | KA relative to KM3002 (fold) [4] | binding activity relative to CamHV0/LV0 (fold) [5] | Binder
1 | 2.24e+09 M⁻¹ | 2.94e+09 M⁻¹ | – | – | – | – | – | – | anti-hIGF human chimeric antibody KM3002 (antibody, human IgG1, V domains shown, V regions of KM1468 on human IgG1, kappa constant regions (vector pKANTEX93); also called anti-hIGF chimeric antibody KM3002) VH: EVHLVESGGGLVQPGRSLKLSCAASGFTFSNYYMTWVRQAPTKGLEWVAYISSGGGSTYYRDSVKGRFTISRDNAKSTLYLQMDSLRSEDTATYYCTTEDYGYWFAYWGQGTLVTVSS VL: EIVLTQSPTTMAASPGEKVTITCRASSSVSYMHWFQQKSGTSPKPWIYGTSKLASGVPDRFSGSGSGTSYSLTISSMEAEDAATYYCLQRSSYPPTFGAGTKLELK
2 | 3.96e+09 M⁻¹ | 2.32e+09 M⁻¹ | ~10 fold | ~14 fold | – | – | – | – | anti-hIGF CDR-grafted antibody QGAR/NYPLL3A11 (antibody, V domains shown, Human IgG1, kappa (pKANTEX93)) VH: EVQLVESGGGVVQPGRSLRLSCAASGFTFSNYYMTWVRQAPTKGLEWVAYISSGGGSTYYRDSVKGRFTISRDNSKNTLYLQMNSLRAEDTAVYYCTTEDYGYWFAYWGQGTLVTVSS VL: DIVMTQSPDSLAVSLGERATITCRASSSVSYMHWFQQKPGQSPKPWIYGTSKLASGVPDRFSGSGSGTSYSLTISSLQAEDAATYYCLQRSSYPPTFGQGTKVEIK
3 | 3.9e+08 M⁻¹ | 1.7e+08 M⁻¹ | – | – | ~0.02 fold | ~0.167 fold | ~0.059 fold | – | anti-hIGF CDR-grafted antibody CamHV0/LV0 (antibody, human IgG1, V domains shown, Human IgG1, kappa (pKANTEX93); also called CmaHV0/LV0) VH: QVQLVESGGGVVQPGRSLRLSCAASGFTFSNYYMTWVRQAPGKGLEWVAYISSGGGSTYYRDSVKGRFTISRDNSKNTLYLQMNSLRAEDTAVYYCAREDYGYWFAYWGQGTLVTVSS VL: DIVMTQSPDSLAVSLGERATINCRASSSVSYMHWYQQKPGQPPKLLIYGTSKLASGVPDRFSGSGSGTDFTLTISSLQAEDVAVYYCLQRSSYPPTFGQGTKVEIK
4 | 4.02e+09 M⁻¹ | 2.31e+09 M⁻¹ | – | – | – | – | – | – | anti-hIGF CDR-grafted antibody QGAR/PLDFT (antibody, human IgG1, V domains shown, Human IgG1, kappa (pKANTEX93)) VH: EVQLVESGGGVVQPGRSLRLSCAASGFTFSNYYMTWVRQAPTKGLEWVAYISSGGGSTYYRDSVKGRFTISRDNSKNTLYLQMNSLRAEDTAVYYCTTEDYGYWFAYWGQGTLVTVSS VL: DIVMTQSPDSLAVSLGERATINCRASSSVSYMHWYQQKPGQSPKPLIYGTSKLASGVPDRFSGSGSGTSYSLTISSLQAEDVAVYYCLQRSSYPPTFGQGTKVEIK
5 | 1.75e+09 M⁻¹ | 7.8e+08 M⁻¹ | ~5 fold | ~5 fold | ~0.5 fold | – | – | ~25 fold | anti-hIGF CDR-grafted antibody QGAR/LV0 (antibody, human IgG1, V domains shown, Human IgG1, kappa (pKANTEX93)) VH: EVQLVESGGGVVQPGRSLRLSCAASGFTFSNYYMTWVRQAPTKGLEWVAYISSGGGSTYYRDSVKGRFTISRDNSKNTLYLQMNSLRAEDTAVYYCTTEDYGYWFAYWGQGTLVTVSS VL: DIVMTQSPDSLAVSLGERATINCRASSSVSYMHWYQQKPGQPPKLLIYGTSKLASGVPDRFSGSGSGTDFTLTISSLQAEDVAVYYCLQRSSYPPTFGQGTKVEIK
6 | 4.5e+08 M⁻¹ | 1.7e+08 M⁻¹ | – | – | – | – | – | – | anti-hIGF CDR-grafted antibody QAR/LV0 (antibody, human IgG1, V domains shown, Human IgG1, kappa (pKANTEX93); also called QAV/LV0) VH: EVQLVESGGGVVQPGRSLRLSCAASGFTFSNYYMTWVRQAPGKGLEWVAYISSGGGSTYYRDSVKGRFTISRDNSKNTLYLQMNSLRAEDTAVYYCTTEDYGYWFAYWGQGTLVTVSS VL: DIVMTQSPDSLAVSLGERATINCRASSSVSYMHWYQQKPGQPPKLLIYGTSKLASGVPDRFSGSGSGTDFTLTISSLQAEDVAVYYCLQRSSYPPTFGQGTKVEIK
7 | 3.52e+09 M⁻¹ | 2.78e+09 M⁻¹ | – | – | – | – | – | – | anti-hIGF CDR-grafted antibody QGAR/PLLDFT (antibody, human IgG1, V domains shown, Human IgG1, kappa (pKANTEX93)) VH: EVQLVESGGGVVQPGRSLRLSCAASGFTFSNYYMTWVRQAPTKGLEWVAYISSGGGSTYYRDSVKGRFTISRDNSKNTLYLQMNSLRAEDTAVYYCTTEDYGYWFAYWGQGTLVTVSS VL: DIVMTQSPDSLAVSLGERATINCRASSSVSYMHWYQQKPGQSPKPWIYGTSKLASGVPDRFSGSGSGTSYSLTISSLQAEDVAVYYCLQRSSYPPTFGQGTKVEIK
8 | 2.1e+09 M⁻¹ | 1.32e+09 M⁻¹ | ~5 fold | ~8 fold | ~0.5 fold | – | – | ~25 fold | anti-hIGF CDR-grafted antibody CamHV0/NYPLL3A11 (antibody, human IgG1, V domains shown) VH: QVQLVESGGGVVQPGRSLRLSCAASGFTFSNYYMTWVRQAPGKGLEWVAYISSGGGSTYYRDSVKGRFTISRDNSKNTLYLQMNSLRAEDTAVYYCAREDYGYWFAYWGQGTLVTVSS VL: DIVMTQSPDSLAVSLGERATITCRASSSVSYMHWFQQKPGQSPKPWIYGTSKLASGVPDRFSGSGSGTSYSLTISSLQAEDAATYYCLQRSSYPPTFGQGTKVEIK

— US20060240015A1 (Kyowa Kirin, published 2006)
